Consider 1 molecule from PMC5028113.

The target of the data set is interferon-gamma (IFN-γ) (UniProt P01579 24-161). Briefly: competition.
Chain of interferon-gamma (IFN-γ) (P01579 24-161): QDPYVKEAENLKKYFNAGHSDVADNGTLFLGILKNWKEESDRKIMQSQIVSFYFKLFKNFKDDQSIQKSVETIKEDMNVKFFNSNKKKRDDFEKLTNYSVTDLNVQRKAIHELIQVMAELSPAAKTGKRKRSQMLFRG

B1: IFN-γ aptamer hybridized with biotin-DNA and thiol-DNA (invertase conjugate) (mixed)
DNA 1: TGGGGTTGGTTGTGTTGGGTGTTGTGTAAAAAAAAAAAAAACTACTCATCTGTGA
DNA 2: AAAAAAAAAAAATCACAGATGAGTAGT
?: AAAAAAAAAAACAACCAACCCCA
modifications: 5' biotin on strand 2; 5' thiol on strand 3
In the case of B1, the binding result is “binds”.
